{"source": "paper PMC8484813", "about": "“Structure and substrate specificity determinants of NfnB, a dinitroaniline herbicide–catabolizing nitroreductase from Sphingopyxis sp. strain HMH” (The Journal of Biological Chemistry, 2021)", "molecules": {"B1": {"name": "NfnB (Sphingopyxis granuli; Y88A) (protein)", "chain": "MPATDTLSLSASEALARRRSVRAFTDRPVDRALLARIFEIAQRAPSGGNLQPWQATVVTGERWQAVQDAVAARIVMGREGFQPEYDIAPRGLTDPWDSRRFGVGEALYASLGIARDDKAGRIAQFQQNYRGFGAPVMLFLHCSRIMGPPQWADMGMWLQSVMLLLVEHGLASCPQECWAMYGATVRAELGLGDDQILFSGLAIGHADEEAPVNRWPVPRVGLDEVIDWQGFDA", "notes": "full-length gene in modified pET28b, N-terminal His6 tag with TEV site, E. coli BL21(DE3); tag kept for activity assays, tag-free for crystals"}, "B2": {"name": "NfnB (Sphingopyxis granuli; R100M) (protein)", "chain": "MPATDTLSLSASEALARRRSVRAFTDRPVDRALLARIFEIAQRAPSGGNLQPWQATVVTGERWQAVQDAVAARIVMGREGFQPEYDIYPRGLTDPWDSRMFGVGEALYASLGIARDDKAGRIAQFQQNYRGFGAPVMLFLHCSRIMGPPQWADMGMWLQSVMLLLVEHGLASCPQECWAMYGATVRAELGLGDDQILFSGLAIGHADEEAPVNRWPVPRVGLDEVIDWQGFDA", "notes": "as for B1"}, "B3": {"name": "NfnB (Sphingopyxis granuli; R100A) (protein)", "chain": "MPATDTLSLSASEALARRRSVRAFTDRPVDRALLARIFEIAQRAPSGGNLQPWQATVVTGERWQAVQDAVAARIVMGREGFQPEYDIYPRGLTDPWDSRAFGVGEALYASLGIARDDKAGRIAQFQQNYRGFGAPVMLFLHCSRIMGPPQWADMGMWLQSVMLLLVEHGLASCPQECWAMYGATVRAELGLGDDQILFSGLAIGHADEEAPVNRWPVPRVGLDEVIDWQGFDA", "notes": "as for B1"}, "B4": {"name": "NfnB (Sphingopyxis granuli; Y88F) (protein)", "chain": "MPATDTLSLSASEALARRRSVRAFTDRPVDRALLARIFEIAQRAPSGGNLQPWQATVVTGERWQAVQDAVAARIVMGREGFQPEYDIFPRGLTDPWDSRRFGVGEALYASLGIARDDKAGRIAQFQQNYRGFGAPVMLFLHCSRIMGPPQWADMGMWLQSVMLLLVEHGLASCPQECWAMYGATVRAELGLGDDQILFSGLAIGHADEEAPVNRWPVPRVGLDEVIDWQGFDA", "notes": "as for B1"}, "B5": {"name": "NfnB (Sphingopyxis granuli) (protein)", "chain": "MPATDTLSLSASEALARRRSVRAFTDRPVDRALLARIFEIAQRAPSGGNLQPWQATVVTGERWQAVQDAVAARIVMGREGFQPEYDIYPRGLTDPWDSRRFGVGEALYASLGIARDDKAGRIAQFQQNYRGFGAPVMLFLHCSRIMGPPQWADMGMWLQSVMLLLVEHGLASCPQECWAMYGATVRAELGLGDDQILFSGLAIGHADEEAPVNRWPVPRVGLDEVIDWQGFDA"}}, "key": {"NfnB": {"target": "T1, NfnB (Sphingopyxis granuli, UniProt A0A411G9W7)", "T1 construct": "full-length gene in modified pET28b, N-terminal His6 tag with TEV site, E. coli BL21(DE3); tag kept for activity assays, tag-free for crystals", "T1 sequence (A0A411G9W7 1-233)": "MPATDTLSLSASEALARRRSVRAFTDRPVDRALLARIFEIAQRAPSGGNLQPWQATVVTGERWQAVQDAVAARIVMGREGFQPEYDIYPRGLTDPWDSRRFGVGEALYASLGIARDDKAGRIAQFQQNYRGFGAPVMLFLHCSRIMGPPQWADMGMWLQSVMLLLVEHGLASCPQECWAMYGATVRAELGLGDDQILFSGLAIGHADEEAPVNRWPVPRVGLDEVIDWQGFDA", "experiment": "X-ray crystal structure, […] Å", "format": "binding", "details": "tag-free protein; FMN in pocket at dimer interface"}, "[1]": {"target": "NfnB from Sphingopyxis sp. strain HMH (wildtype) (Sphingopyxis sp. strain HMH)", "experiment": "SEC; Superdex 200 column, buffer A (50 mM Tris pH 8.0, 100 mM NaCl); elution peak compared with the monomeric molecular weight"}, "purified protein [2]": {"substrate": "CCCN(CCC)c1c([N+](=O)[O-])cc(C(C)C)cc1[N+](=O)[O-]", "experiment": "purified protein", "details": "50 mM Tris pH 7.5, 30 °C"}, "purified protein [3]": {"substrate": "CCC(C)Nc1c([N+](=O)[O-])cc(C(C)(C)C)cc1[N+](=O)[O-]", "experiment": "purified protein", "format": "biochemical, Sphingopyxis granuli", "details": "50 mM Tris pH 7.5, 30 °C"}, "purified protein [4]": {"substrate": "CCC(CC)Nc1c([N+](=O)[O-])cc(C)c(C)c1[N+](=O)[O-]", "experiment": "purified protein", "format": "biochemical, Sphingopyxis granuli", "details": "50 mM Tris pH 7.5, 30 °C"}, "purified protein [5]": {"substrate": "NC(=O)C1=CN([C@@H]2O[C@H](COP(=O)(O)OP(=O)(O)OC[C@H]3O[C@@H](n4cnc5c(N)ncnc54)[C@H](OP(=O)(O)O)[C@@H]3O)[C@@H](O)[C@H]2O)C=CC1", "experiment": "purified protein", "format": "biochemical, Sphingopyxis granuli", "details": "12.5 μM butralin, 50 mM Tris pH 7.5, 30 °C, electron donor"}, "purified protein [6]": {"substrate": "NC(=O)C1=CN([C@@H]2O[C@H](COP(=O)(O)OP(=O)(O)OC[C@H]3O[C@@H](n4cnc5c(N)ncnc54)[C@H](OP(=O)(O)O)[C@@H]3O)[C@@H](O)[C@H]2O)C=CC1", "experiment": "purified protein", "details": "pH 7.5; 30.0 °C"}, "purified protein [7]": {"substrate": "CCC(C)Nc1c([N+](=O)[O-])cc(C(C)(C)C)cc1[N+](=O)[O-]", "experiment": "purified protein", "details": "pH 7.5; 30.0 °C"}, "purified protein [8]": {"substrate": "CCC(CC)Nc1c([N+](=O)[O-])cc(C)c(C)c1[N+](=O)[O-]", "experiment": "purified protein", "details": "pH 7.5; 30.0 °C"}}, "data": [{"molecule": "Cc1cc2nc3c(=O)[nH]c(=O)nc-3n(C[C@H](O)[C@H](O)[C@H](O)COP(=O)(O)O)c2cc1C", "note": "[FMN]", "values": [{"measurement": "X-ray crystal structure, 2.1 Å", "setting": "NfnB", "value": "We determined the crystal structure of NfnB in the presence of coenzyme FMN"}]}, {"molecule": "NfnB from Sphingopyxis sp. strain HMH (wildtype) (enzyme)", "values": [{"measurement": "stoichiometry N", "setting": "[1]", "value": 2}]}, {"molecule": "B1", "values": [{"measurement": "Km", "setting": "purified protein [2]; 200 μM NADPH", "value": "0.83 (0.16) μM"}, {"measurement": "kcat", "setting": "purified protein [2]; 200 μM NADPH", "value": 1.2, "unit": "s⁻¹"}, {"measurement": "Km", "setting": "purified protein [3]; 200 μM NADPH", "value": "0.59 (0.077) μM"}, {"measurement": "kcat", "setting": "purified protein [3]; 200 μM NADPH", "value": 2.1, "unit": "s⁻¹"}, {"measurement": "Km", "setting": "purified protein [4]; 200 μM NADPH", "value": "2.9 (0.18) μM"}, {"measurement": "kcat", "setting": "purified protein [4]; 200 μM NADPH", "value": 2.5, "unit": "s⁻¹"}]}, {"molecule": "B2", "values": [{"measurement": "Km", "setting": "purified protein [5]", "value": "95 (20) μM"}, {"measurement": "kcat", "setting": "purified protein [5]", "value": 4.9, "unit": "s⁻¹"}]}, {"molecule": "B3", "values": [{"measurement": "Km", "setting": "purified protein [5]", "value": "58 (4.5) μM"}, {"measurement": "kcat", "setting": "purified protein [5]", "value": 3.9, "unit": "s⁻¹"}]}, {"molecule": "B4", "values": [{"measurement": "Km", "setting": "purified protein [2]; 100 μM NADPH", "value": "2.7 (0.17) μM"}, {"measurement": "kcat", "setting": "purified protein [2]; 100 μM NADPH", "value": 0.66, "unit": "s⁻¹"}, {"measurement": "Km", "setting": "purified protein [3]; 100 μM NADPH", "value": "0.81 (0.12) μM"}, {"measurement": "kcat", "setting": "purified protein [3]; 100 μM NADPH", "value": 4, "unit": "s⁻¹"}, {"measurement": "Km", "setting": "purified protein [4]; 100 μM NADPH", "value": "1.6 (0.28) μM"}, {"measurement": "kcat", "setting": "purified protein [4]; 100 μM NADPH", "value": 3.6, "unit": "s⁻¹"}]}, {"molecule": "B5", "values": [{"measurement": "Km", "setting": "purified protein [6]", "value": "7.3 (1.4) μM"}, {"measurement": "Km", "setting": "purified protein [7]", "value": "2.4 (0.50) μM"}, {"measurement": "Km", "setting": "purified protein [8]", "value": "6.8 (1.7) μM"}]}]}
